{
  "source": "paper PMC13544220",
  "about": "“Glycemic and bodyweight effects of GIPR coding variation reflect differences in surface expression and intrinsic functional impairment” (Science Advances, 2026);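 on AD293 Surface: scaled to the experimental average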",
  "molecules": {"B1": {"name": "WT (protein, UniProt P48546 22-466, looked up)", "Gastric inhibitory …": "RAETGSKGQTAGELYQRWERYRRECQETLAAAEPPSGLACNGSFDMYVCWDYAAPNATARASCPWYLPWHHHVAAGFVLRQCGSDGQWGLWRDHTQCENPEKNEAFLDQRLILERLQVMYTVGYSLSLATLLLALLILSLFRRLHCTRNYIHINLFTSFMLRAAAILSRDRLLPRPGPYLGDQALALWNQALAACRTAQIVTQYCVGANYTWLLVEGVYLHSLLVLVGGSEEGHFRYYLLLGWGAPALFVIPWVIVRYLYENTQCWERNEVKAIWWIIRTPILMTILINFLIFIRILGILLSKLRTRQMRCRDYRLRLARSTLTLVPLLGVHEVVFAPVTEEQARGALRFAKLGFEIFLSSFQGFLVSVLYCFINKEVQSEIRRGWHHCRLRRSLGEEQRQLPERAFRALPSGSGPGEVPTSRGLSSGTLPGPGNEASRELESYC"}},
  "key": {"[1]": {"test_system": "wild-type and variant SNAP-GIPR in Gipr-/- mouse islets", "experiment": "Glucagon secretion from Gipr-/- mouse islets transduced with GIPR adenoviruses", "assay_type": "cell-based", "conditions": "Gipr-/- islets, 0.5 mM glucose; each variant vs wild type", "method": "(§1) Isolated islets used for insulin secretion assays were treated in 1.5-ml microcentrifuge tubes. Eight-ten islets were used per well with two-three technical replicates per condition. […] At the end of the treatment, supernatants containing the secreted insulin or glucagon were collected, centrifuged at 1000g for 5 min, and transferred to fresh tubes. […] The lysates were sonicated 3× for 10 s in a water bath and centrifuged at 10,000g for 10 min, and the supernatants were collected. The samples were stored at −20°C until the insulin or glucagon concentrations were determined using an Insulin Ultra-Sensitive HTRF Assay kit (62IN2PEG, Revvity) or an HTRF Glucagon Detection Kit (62CGLPEG, Revvity) respectively, according to the manufacturer’s instructions. GraphPad Prism 9.0 was used for the generation of the standard curve and sample concentration extrapolation. The total insulin or glucagon content was calculated by adding the secreted insulin to the insulin content of the lysates, and secretion was reported as the percentage release of total. The percent secretion of islets treated with agonist was normalized to that of islets treated with vehicle and reported as a fold change."}, "[2]": {"test_system": "wild-type and variant SNAP-GIPR in Gipr-/- mouse islets", "experiment": "Insulin secretion from Gipr-/- mouse islets transduced with GIPR adenoviruses", "assay_type": "cell-based", "conditions": "Gipr-/- islets, 11 mM glucose, 100 nM GIP", "method": "as §1"}, "[3]": {"test_system": "wild-type and variant SNAP-GIPR in wild-type mouse islets", "experiment": "Insulin secretion from wild-type mouse islets transduced with GIPR adenoviruses", "assay_type": "cell-based", "conditions": "11 mM glucose, particularly E354Q and R190Q, not significant", "method": "as §1, with “The samples were stored at −20°C until the insulin or glucagon concentrations were determined using an Insulin Ultra-Sensitive HTRF Assay kit (62IN2PEG, Revvity) or an HTRF Glucagon Detection Kit (62CGLPEG, Revvity) respectively, according to the manufacturer’s instructions.” left out"}, "[4]": {"test_system": "wild-type and variant SNAP-GIPR in Gipr-/- mouse islets", "experiment": "Surface SNAP-GIPR expression in pancreatic islets", "assay_type": "cell-based, human", "conditions": "Fig 6B", "method": "Islets were purified from Gipr^−/− mice as described in the “Islet isolation and culture” section. Islets were transduced with adenoviral wild-type or variant SNAP-tagged GIPR constructs (VectorBuilder) per the manufacturer’s instructions. All variants were tested in parallel on each occasion to control for transduction efficiency. Twenty-four hours posttransduction, whole, intact islets were labeled with SNAP-Surface Alexa Fluor 647 for 15 min at 37°C. Following labeling, the islets were placed in a drop of PBS in the center of a glass-bottom MatTek dish and imaged on a Zeiss LSM 780 inverted confocal microscope fitted with a 63X/1.4 NA oil immersion objective. Receptor surface levels were quantified in Fiji using a macro using full width at half maximum (FWHM) designed by the Facility for Imaging and Light Microscopy (FILM) at Imperial College London and expressed relative to wild-type GIPR. In additional experiments, islets transduced as above and labeled with SNAP-Surface-647 were fixed in 4% paraformaldehyde, permeabilized in 0.5% (v/v) Triton X-100 in PBS (15 min), washed once with PBS and incubated in blocking buffer (PBS and 1% BSA) for 1 hour, and incubated overnight at 4°C in primary antibodies against insulin (1:50; Dako IR002, Agilent Technologies) and glucagon (1:500; G2654, Sigma-Aldrich) in blocking buffer."}, "[5]": {"test_system": "wild-type and variant SNAP-GIPR", "experiment": "Surface SNAP-GIPR expression (SNAP-tag labelling) in AD293 cells", "assay_type": "cell-based, human", "conditions": "for AD293 Surface: Fig S3E, mean; for Surface SNAP-GIPR expression: sheet Fig 1C", "summary_of_the_method": "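Read-out: whole-cell fluorescence of surface-only SNAP label (Alexa Fluor 647, 500 nM, 10 min, RT), wide-field 20X, several FOVs per well. Flat-field corrected, phase-contrast masked, nontransfected-well signal subtracted; normalized to experiment mean or wild-type.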"}},
  "data": [
    {"molecule": "CC[C@H](C)[C@H](NC(=O)[C@H](CO)NC(=O)[C@H](Cc1ccc(O)cc1)NC(=O)[C@H](CC(=O)O)NC(=O)[C@H](CO)NC(=O)[C@@H](NC(=O)[C@H](Cc1ccccc1)NC(=O)[C@@H](NC(=O)CNC(=O)[C@H](CCC(=O)O)NC(=O)[C@H](C)NC(=O)[C@@H](N)Cc1ccc(O)cc1)[C@@H](C)O)[C@@H](C)CC)C(=O)N[C@@H](C)C(=O)N[C@@H](CCSC)C(=O)N[C@@H](CC(=O)O)C(=O)N[C@@H](CCCCN)C(=O)N[C@H](C(=O)N[C@@H](Cc1c[nH]cn1)C(=O)N[C@@H](CCC(N)=O)C(=O)N[C@@H](CCC(N)=O)C(=O)N[C@@H](CC(=O)O)C(=O)N[C@@H](Cc1ccccc1)C(=O)N[C@H](C(=O)N[C@@H](CC(N)=O)C(=O)N[C@@H](Cc1c[nH]c2ccccc12)C(=O)N[C@@H](CC(C)C)C(=O)N[C@@H](CC(C)C)C(=O)N[C@@H](C)C(=O)N[C@@H](CCC(N)=O)C(=O)N[C@@H](CCCCN)C(=O)NCC(=O)N[C@@H](CCCCN)C(=O)N[C@@H](CCCCN)C(=O)N[C@@H](CC(N)=O)C(=O)N[C@@H](CC(=O)O)C(=O)N[C@@H](Cc1c[nH]c2ccccc12)C(=O)N[C@@H](CCCCN)C(=O)N[C@@H](Cc1c[nH]cn1)C(=O)N[C@@H](CC(N)=O)C(=O)N[C@H](C(=O)N[C@H](C(=O)N[C@@H](CCC(N)=O)C(=O)O)[C@@H](C)O)[C@@H](C)CC)C(C)C)[C@@H](C)CC", "note": "[GIP, glucose-dependent insulinotropic polypeptide, reference compound]", "values": [
      {"measurement": "glucagon release", "setting": "[1]", "result": "apparent but nonstatistically significant reduction in glucagon release"},
      {"measurement": "GIP-induced insulin secretion", "setting": "[2]; 30 min, E354Q vs wild-type", "result": "blunted insulinotropic response"},
      {"measurement": "GIP-induced insulin secretion", "setting": "[2]; R101H and E288G, not significant", "result": "apparent reduced GIP-induced insulin secretion"},
      {"measurement": "GIP-induced insulin secretion", "setting": "[2]; R190Q, statistically significant", "result": "reduced GIP-induced insulin secretion"},
      {"measurement": "GIP-induced insulin secretion", "setting": "[3]", "result": "tendency toward reduced responses to GIP stimulation"}
    ]},
    {"molecule": "B1", "values": [
      {"measurement": "Surface SNAP-GIPR expression in pancreatic islets", "setting": "[4]; replicate 1", "result": 1.958},
      {"measurement": "Surface SNAP-GIPR expression in pancreatic islets", "setting": "[4]; replicate 2", "result": 2.33},
      {"measurement": "Surface SNAP-GIPR expression in pancreatic islets", "setting": "[4]; replicate 3", "result": 2.173},
      {"measurement": "Surface SNAP-GIPR expression in pancreatic islets", "setting": "[4]; replicate 4", "result": 3.278},
      {"measurement": "Surface SNAP-GIPR expression in pancreatic islets", "setting": "[4]; replicate 5", "result": 3.132},
      {"measurement": "AD293 Surface", "setting": "[5]; column repeated, paired with cAMP 100 nM", "result": 1.574},
      {"measurement": "AD293 Surface", "setting": "[5]; paired with cAMP 100 pM", "result": 1.574},
      {"measurement": "Surface SNAP-GIPR expression", "setting": "[5]; replicate 1", "result": 1.413},
      {"measurement": "Surface SNAP-GIPR expression", "setting": "[5]; replicate 2", "result": 1.272},
      {"measurement": "Surface SNAP-GIPR expression", "setting": "[5]; replicate 3", "result": 1.88},
      {"measurement": "Surface SNAP-GIPR expression", "setting": "[5]; replicate 4", "result": 1.444},
      {"measurement": "Surface SNAP-GIPR expression", "setting": "[5]; replicate 5", "result": 1.509},
      {"measurement": "Surface SNAP-GIPR expression", "setting": "[5]; replicate 6", "result": 1.344},
      {"measurement": "Surface SNAP-GIPR expression", "setting": "[5]; replicate 7", "result": 1.891},
      {"measurement": "Surface SNAP-GIPR expression", "setting": "[5]; replicate 8", "result": 1.028},
      {"measurement": "Surface SNAP-GIPR expression", "setting": "[5]; replicate 9", "result": 1.591},
      {"measurement": "Surface SNAP-GIPR expression", "setting": "[5]; replicate 10", "result": 1.397},
      {"measurement": "Surface SNAP-GIPR expression", "setting": "[5]; replicate 11", "result": 1.544},
      {"measurement": "Surface SNAP-GIPR expression", "setting": "[5]; replicate 12", "result": 1.527},
      {"measurement": "Surface SNAP-GIPR expression", "setting": "[5]; replicate 13", "result": 1.575},
      {"measurement": "Surface SNAP-GIPR expression", "setting": "[5]; replicate 14", "result": 1.588},
      {"measurement": "Surface SNAP-GIPR expression", "setting": "[5]; replicate 15", "result": 1.562},
      {"measurement": "Surface SNAP-GIPR expression", "setting": "[5]; replicate 16", "result": 1.285},
      {"measurement": "Surface SNAP-GIPR expression", "setting": "[5]; replicate 17", "result": 1.371},
      {"measurement": "Surface SNAP-GIPR expression", "setting": "[5]; replicate 18", "result": 1.43},
      {"measurement": "Surface SNAP-GIPR expression", "setting": "[5]; replicate 19", "result": 1.701},
      {"measurement": "Surface SNAP-GIPR expression", "setting": "[5]; replicate 20", "result": 1.486},
      {"measurement": "Surface SNAP-GIPR expression", "setting": "[5]; replicate 21", "result": 1.598},
      {"measurement": "Surface SNAP-GIPR expression", "setting": "[5]; replicate 22", "result": 1.477},
      {"measurement": "Surface SNAP-GIPR expression", "setting": "[5]; replicate 23", "result": 1.449},
      {"measurement": "Surface SNAP-GIPR expression", "setting": "[5]; replicate 24", "result": 1.623},
      {"measurement": "Surface SNAP-GIPR expression", "setting": "[5]; replicate 25", "result": 1.241},
      {"measurement": "Surface SNAP-GIPR expression", "setting": "[5]; replicate 26", "result": 1.004},
      {"measurement": "Surface SNAP-GIPR expression", "setting": "[5]; replicate 27", "result": 2.237},
      {"measurement": "Surface SNAP-GIPR expression", "setting": "[5]; replicate 28", "result": 2.105},
      {"measurement": "Surface SNAP-GIPR expression", "setting": "[5]; replicate 29", "result": 1.748},
      {"measurement": "Surface SNAP-GIPR expression", "setting": "[5]; replicate 30", "result": 1.831},
      {"measurement": "Surface SNAP-GIPR expression", "setting": "[5]; replicate 31", "result": 1.807},
      {"measurement": "Surface SNAP-GIPR expression", "setting": "[5]; replicate 32", "result": 1.314},
      {"measurement": "Surface SNAP-GIPR expression", "setting": "[5]; replicate 33", "result": 1.406},
      {"measurement": "Surface SNAP-GIPR expression", "setting": "[5]; replicate 34", "result": 1.597},
      {"measurement": "Surface SNAP-GIPR expression", "setting": "[5]; replicate 35", "result": 1.369},
      {"measurement": "Surface SNAP-GIPR expression", "setting": "[5]; replicate 36", "result": 1.658},
      {"measurement": "Surface SNAP-GIPR expression", "setting": "[5]; replicate 37", "result": 2.437},
      {"measurement": "Surface SNAP-GIPR expression", "setting": "[5]; replicate 38", "result": 2.543},
      {"measurement": "Surface SNAP-GIPR expression", "setting": "[5]; replicate 39", "result": 1.55},
      {"measurement": "Surface SNAP-GIPR expression", "setting": "[5]; replicate 40", "result": 1.34},
      {"measurement": "Surface SNAP-GIPR expression", "setting": "[5]; replicate 41", "result": 1.346}
    ]}
  ]
}
